Assay results: paper PMC6648343, “Remodeling and destabilization of chromosome 1 pericentromeric heterochromatin by SSX proteins” (Nucleic Acids Research, 2019)

Target: the molecule itself
Assay: cross-linking; recombinant SSX2 diluted to indicated concentrations in 20 mM PBS (pH 7.4), 50 mM NaCl; 0.1% glutaraldehyde, 2 min at 37°C, quenched with glycine; oligomerization analysed by Western blotting

B1: recombinant SSX2 (natural protein, UniProt Q16385 1-188, looked up)
chain: MNGDDAFARRPTVGAQIPEKIQKAFDDIAKYFSKEEWEKMKASEKIFYVYMKRKYEAMTKLGFKATLPPFMCNKRAEDFQGNDLDNDPNRGNQVERPQMTFGRLQGISPKIMPKKPAEEGNDSEEVPEASGPQNDGKELCPPGKPTTSEKIHERSGPKRGEHAWTHRLRERKQLVIYEEISDPEEDDE
notes: SSX2; GenBank CAA60111.1 is printed for SSX2 in the structure modelling; also called recombinant, purified SSX2; source: recombinant, purified
Question: Does B1 bind?
Answer: Result: binds
